Series [1] deals with the molecule itself. Nature of the series: crystal structure; SeMet-containing KCa3.1-CC crystallised with 3 mM CuCl2; 0.1 M imidazole (pH 6.5), 1.0 M sodium acetate; space group P4212, 1.75 Å; four-helix bundle generated by the crystallographic four-fold axis.
Series [2] concerns the molecule itself. The series is described as follows: crystal structure; native KCa3.1-CC crystallised without copper (apo); 0.1 M imidazole (pH 6.5), 1.0 M sodium acetate; 1.75 Å, molecular replacement, only partially refined.

Here are results for two proteins from publication PMC6023178, “Crystal structure of the C-terminal four-helix bundle of the potassium channel KCa3.1” (PLoS ONE, 2018).

Square brackets hold non-standard residues; d marks the D form. Ends that are not written are not given here. SeMet = C[Se]CC[C@H](N)C(=O)O

B1: SeMet-containing KCa3.1-CC (C-terminal coiled-coil region of human KCa3.1, residues 376-415) (domain or fragment, UniProt O15554 376-415, looked up)
chain: [SeMet]ILYDLQQNLSSSHRALEKQIDTLAGKLDALTELLSTALG
notes: KCa3.1 (SK4, IK1), human, C-terminal coiled-coil region, residues 376-415; residues 376-414 are in the atomic model; Crystallised in the presence of 3 mM CuCl2; a Cu(II) ion is coordinated by the four copies of His389; also called SeMet KCa3.1-CC; SeMet SK4-CC (w/copper); source: E. coli B834(DE3), PASM-5052 auto-induction medium, purified (GST-trap, thrombin cleavage, Superdex 75); not shown: …
B1: in series [1], the “stoichiometry N” value stood at 4.

B2: native KCa3.1-CC (C-terminal coiled-coil region of human KCa3.1, residues 376-415) (domain or fragment, UniProt O15554 376-415, looked up)
chain: MILYDLQQNLSSSHRALEKQIDTLAGKLDALTELLSTALG
notes: KCa3.1 (SK4, IK1), human, C-terminal coiled-coil region, residues 376-415; Crystallised without copper (apo); also called native, apo KCa3.1-CC; source: E. coli BL21-Gold(DE3)pLysS, purified (GST-trap, thrombin cleavage, Superdex 75); not shown: GST, N-terminal, cleaved
Turning to B2, the binding result in series [2] was “binds”.

A word on the stoichiometry N: it is the number of molecules, sites or subunits per partner or assembly.
